# B1: CLC-ec1 (wild type) (natural protein, E. coli)
# chain: MKTDTPSLETPQAARLRRRQLIRQLLERDKTPLAILFMAAVVGTLVGLAAVAFDKGVAWLQNQRMGALVHTADNYPLLLTVAFLCSAVLAMFGYFLVRKYAPEAGGSGIPEIEGALEDQRPVRWWRVLPVKFFGGLGTLGGGMVLGREGPTVQIGGNIGRMVLDIFRLKGDEARHTLLATGAAAGLAAAFNAPLAGILFIIEEMRPQFRYTLISIKAVFIGVIMSTIMYRIFNHEVALIDVGKLSDAPLNTLWLYLILGIIFGIFGPIFNKWVLGMQDLLHRVHGGNITKWVLMGGAIGGLCGLLGFVAPATSGGGFNLIPIATAGNFSMGMLVFIFVARVITTLLCFSSGAPGGIFAPMLALGTVLGTAFGMVAVELFPQYHLEAGTFAIAGMGALLAASIRAPLTGIILVLEMTDNYQLILPMIITGLGATLLAQFTGGKPLYSAILARTLAKQEAEQLARSK
# notes: CLC-ec1, the E. coli CLC Cl-/H+ exchange transporter homolog; The eluate of the cobalt column was incubated with Endoproteinase Lys-C; Homodimer in the cryo-EM maps (C2 symmetry imposed); also called WT CLC-ec1; WT
# Target: the molecule itself
# Test: cryo-EM structure; CLC-ec1 in Salipro (Saposin-A, POPE/POPG) nanoparticles, 10 mM Hepes, 150 mM NaCl, pH 7.5; C2 symmetry imposed
protein,measurement,value
B1,binding result,binds
